In patent publication US6323185, “Anti-viral guanosine-rich oligonucleotides and method of treating HIV” (The United States of America as represented by the …):

Columns and labels:
[1] = target: T1, HIV-1 reverse transcriptase (HIV-1 (BH10), UniProt P03366;P03366 P03366:600-1159,P03366:600-1039); assay: inhibition; gapped duplex DNA template; duplicate 10.0 uM; conditions: intramolecular G4 (G-octet)
[2] = target: T1, HIV-1 reverse transcriptase; assay: inhibition; poly(rA).p(dT)12-18 template; duplicate 4.2 uM; conditions: intramolecular G4 (G-octet)
[3] = target: T1, HIV-1 reverse transcriptase; assay: inhibition; primed ribosomal RNA template; duplicate 0.36 uM; conditions: intramolecular G4 (G-octet)
[4] = target: HIV-1 integrase wild-type (IN1-288) (HIV-1, UniProt P12497 P12497:1148-1435); assay: inhibition; 3'-processing; strand transfer 0.046 uM; Table D-1 79 nM / 49 nM; FIG. 30 55 nM; Mn; conditions: intramolecular G4 (G-octet)
CD4 = CD4 (UniProt P01730 P01730:26-396); assay: competition; ID50, oligo with immobilized CD4; conditions: tags: immobilized, gp120 capture ELISA kit
[5] = target: T2, gp120 envelope glycoprotein (HIV-1, UniProt P04578 P04578:33-511); assay: competition; ID50, gp120/CD4 ELISA; PD oligos did not inhibit V3 Mab binding; conditions: tags: gp120 capture ELISA kit
[6] = target: T2, gp120 envelope glycoprotein; assay: competition; ID50, inhibition of gp120 binding to CD4, oligo preincubated with gp120; conditions: tags: gp120 capture ELISA kit
[7] = target: HIV-1 integrase wild-type (IN1-288) (HIV-1, UniProt P12497 P12497:1148-1435); assay: UV crosslinking, about 39 kDa complex; not competed by excess T30177 added after preincubation; conditions: label: 5'-32P

Binder GTGGTGGGTGGGTGGGT (ssDNA, PS at first and last internucleoside linkages, 3'-OH) [T30177 (AR177, Zintevir)] has an IC50 [1] of 8 µM, an IC50 [2] of 11 µM and an IC50 [3] of 1200 nM. It also gave an IC50 [4] of 92 nM.

GTGGTGGGTGGGTGGGTGGTGGGTGGTGGTTGTGGGTGGGTGGTG (ssDNA, phosphodiester) [I100-07] was tested, and the IC50 (CD4) was 4.25 µM and the IC50 [5] was 800 nM.

In the case of GTTGGGGGTTGTTGGTGGGGTGGTGG (ssDNA, phosphodiester) [I100-00], the IC50 (CD4) is reported as 18 µM and the IC50 [6] is reported as 3.5 µM.

B1: HIV-1 U5 LTR 21-mer duplex (AE118/AE117) (dsDNA)
DNA 1: GTGTGGAAAATCTCTAGCAGT
DNA 2: ACTGCTAGAGATTTTCCACAC
B1: binds [7].
